Paper PMC7705670, “Structural and functional characterization of M. tuberculosis sedoheptulose- 7-phosphate isomerase, a critical enzyme involved in lipopolysaccharide biosynthetic pathway” (Scientific Reports, 2020)

T1: M. tuberculosis HddA enzyme (MtbHddA) (M. tuberculosis, UniProt O53637 1-386)
T1 sequence: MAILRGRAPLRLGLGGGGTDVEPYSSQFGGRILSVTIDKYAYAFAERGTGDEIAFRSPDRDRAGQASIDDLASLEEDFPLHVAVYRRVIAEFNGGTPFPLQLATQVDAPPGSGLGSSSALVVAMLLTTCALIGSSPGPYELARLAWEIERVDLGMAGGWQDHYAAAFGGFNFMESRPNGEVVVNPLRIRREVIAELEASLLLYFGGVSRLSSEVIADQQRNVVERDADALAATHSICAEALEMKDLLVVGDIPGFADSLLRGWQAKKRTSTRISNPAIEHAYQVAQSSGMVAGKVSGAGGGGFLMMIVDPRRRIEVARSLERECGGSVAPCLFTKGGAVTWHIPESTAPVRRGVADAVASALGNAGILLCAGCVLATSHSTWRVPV

B1: M. tuberculosis sedoheptulose-7-phosphate isomerase (MtbGmhA), wild type (enzyme)
chain: MCTARTAEEIFVETIAVKTRILNDRVLLEAARAIGDRLIAGYRAGARVFMCGNGGSAADAQHFAAELTGHLIFDRPPLGAEALHANSSHLTAVANDYDYDTVFARALEGSARPGDTLFAISTSGNSMSVLRAAKTARELGVTVVAMTGESGGQLAEFADFLINVPSRDTGRIQESHIVFIHAISEHVEHALFAPRQ
notes: also called Rv0113; not shown: His6, N-terminal, kept
B2: M. tuberculosis GmhB enzyme (MtbGmhB) (enzyme)
chain: MVAERAGHQWCLFLDRDGVINRQVVGDYVRNWRQFEWLPGAARALKKLRAWAPYIVVVTNQQGVGAGLMSAVDVMVIHRHLQMQLASDGVLIDGFQVCPHHRSQRCGCRKPRPGLVLDWLGRHPDSEPLLSIVVGDSLSDLELAHNVAAAAGACASVQIGGASSGGVADASFDSLWEFAVAVGHARGERG

Experiments:
[1] = target: T1, M. tuberculosis HddA enzyme (MtbHddA); assay: SPR; MtbGmhA immobilised (legend of Figure 4) on a gold surface activated by EDC-NHS; 25 °C; steady-state fit, Langmuir 1:1 model; conditions: both partners purified
SEC = target: the molecule itself; assay: SEC
[2] = target: T1, M. tuberculosis HddA enzyme (MtbHddA); assay: SPR; conditions: both partners purified
[3] = target: B1; assay: SPR; MtbGmhA immobilised (legend of Figure 4) on a gold surface activated by EDC-NHS; 25 °C; steady-state fit, Langmuir 1:1 model; conditions: both partners purified

Row | Binder | Kd [1] [µM] | stoichiometry N (SEC) | Kd [2] [µM] | Kd [3] [µM]
1 | B1 | 8.45 ± 0.45 | 4 |  | 
2 | B2 |  |  | 20 ± 0.95 | 4.9 ± 0.11
